In test [1] the target is T1, human Siglec-6 on the cell surface (U937, MEC1-002, MEC1-hS6, primary CLL cells) (human, UniProt O43699 27-453).
T1 construct: whole, on cells; Endogenous on U937, MEC1-002 and CLL cells; stably transfected in MEC1-hS6
As to the kind of experiment: flow cytometry titration on MEC1-hS6 cells, apparent Kd; scFv-Fc format, RC-1 clone. For orientation: A flow cytometer gives signals particle by particle.
Description: (§1) To determine whether T-biAb format affected the affinity to Siglec-6 or CD3 on the cell surface, T-biAbs were titrated and used to stain cells for flow cytometry (FIG. 17a).
(§2) Flow cytometry: Fabs were used to stain cells at a concentration of 2 μg/mL, unless otherwise noted. […] Samples were analyzed on either an Accuri C6 Plus or a LSRII flow cytometer (both from BD Biosciences).

Test [2] has as its target T1, human Siglec-6 on the cell surface …. As to the kind of experiment: cell-based or functional assay.
The next test addresses T2, Siglec-6 VC28-235-His6 (human, UniProt O43699 28-235).
T2 construct: It was deglycosylated with PNGase F for HDX-MS; also called soluble Siglec-6 (aa 28-235-His6); Siglec-6 ectodomain fragment
As to the kind of experiment: SPR, T-biAb immobilised via the Fc domain, soluble Siglec-6 (aa 28-235-His6) injected. In general terms: SPR reads the build-up and loss of mass on a sensor chip optically.

Test [3] addresses T3, CD3 on human T cells (human, UniProt P07766 23-207).
T3 construct: whole, on cells; CD3 is a complex; also called CD3+ cells
As to the kind of experiment: flow cytometry titration on primary human T cells, Alexa Fluor 647 anti-human Fc secondary antibody, percent biAb+ cells.
Description: as §1, §2

Test [4] deals with T3, CD3 on human T cells. As to the kind of experiment: flow cytometry titration on primary human T cells.
Description: as §1, §2
Test [5] has as its target T1, human Siglec-6 on the cell surface …. Description: cell-based or functional assay. This is another data set of the same source.

T1 sequence (O43699 27-453): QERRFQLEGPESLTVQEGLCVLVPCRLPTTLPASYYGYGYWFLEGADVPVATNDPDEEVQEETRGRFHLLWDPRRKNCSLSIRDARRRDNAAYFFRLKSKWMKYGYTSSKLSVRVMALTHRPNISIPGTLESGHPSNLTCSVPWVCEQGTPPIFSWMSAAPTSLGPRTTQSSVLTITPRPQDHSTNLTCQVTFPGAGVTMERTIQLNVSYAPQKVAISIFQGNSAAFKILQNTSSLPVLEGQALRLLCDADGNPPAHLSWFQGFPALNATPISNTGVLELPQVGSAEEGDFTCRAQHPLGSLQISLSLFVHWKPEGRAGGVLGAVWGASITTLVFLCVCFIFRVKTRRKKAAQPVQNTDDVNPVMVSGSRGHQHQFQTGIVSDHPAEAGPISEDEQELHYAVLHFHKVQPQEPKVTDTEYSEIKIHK
T2 sequence (O43699 other isoform, or with tags, fused parts or gaps limits assumed): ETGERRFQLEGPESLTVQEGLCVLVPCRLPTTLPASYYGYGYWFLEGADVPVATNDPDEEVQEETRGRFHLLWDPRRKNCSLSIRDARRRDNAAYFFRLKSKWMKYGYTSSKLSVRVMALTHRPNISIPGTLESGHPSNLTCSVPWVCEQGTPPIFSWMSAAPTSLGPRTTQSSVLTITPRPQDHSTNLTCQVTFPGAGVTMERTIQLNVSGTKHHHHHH
T3 sequence (P07766 23-207): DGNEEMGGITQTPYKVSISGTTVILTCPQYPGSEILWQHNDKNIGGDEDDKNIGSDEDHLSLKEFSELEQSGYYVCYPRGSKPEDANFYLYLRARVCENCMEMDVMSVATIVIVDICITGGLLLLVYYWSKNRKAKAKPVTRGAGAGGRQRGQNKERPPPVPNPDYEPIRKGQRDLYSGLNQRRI
Description for Siglec-6 VC28-235-His6: Fab kinetics were determined by capturing Siglec-6-Fc (5-10 μg/mL) in HBS-EP+ buffer (Cytiva) and injecting titrated. […] Biacore evaluation software was used to calculate kₒₙ, koff, and Kd.

B1: RC-1/V9 scFv-Fc (bispecific antibody)
chain 1: not shown
chain 2: EVQLVESGGGLVQPGGSLRLSCAASGYSFTGYTMNWVRQAPGKGLEWVALINPYKGVSTYNQKFKDRFTISVDKSKNTAYLQMNSLRAEDTAVYYCARSGYYGDSDWYFDVWGQGTLVTVSSGGGGSGGGGSGGGGSDIQMTQSPSSLSASVGDRVTITCRASQDIRNYLNWYQQKPGKAPKLLIYYTSRLESGVPSRFSGSGSGTDYTLTISSLQPEDFATYYCQQGNTLPWTFGQGTKVEIKEPKSSDKTHTCPPCPAPELLGGPSVFLFPPKPKDTLMISRTPEVTCVVVDVSHEDPEVKFNWYVDGVEVHNAKTKPREEQYASTYRVVSVLTVLHQDWLNGKEYKCKVSNKALPAPIEKTISKAKGQPREPQVCTLPPSRDELTKNQVSLSCAVKGFYPSDIAVEWESNGQPENNYKTTPPVLDSDGSFFLVSKLTVDKSRWQQGNVFSCSVMHEALHNHYTQKSLSLSPGA
notes: Knobs-into-holes heterodimer of the RC-1 scFv-Fc knob arm and the shared anti-CD3 V9 scFv-Fc hole arm; also called RC-1 clone in scFv-Fc format
Usually koff stands for a measure of how fast the partners let go of each other. A low value points to slow dissociation. What is called kon is a measure of how fast the partners come together. A high value points to faster complex formation. Usually EC50 (read off the curve) stands for the concentration giving half of the maximal effect. For the molecule B1, the Kd in test [1] is 1.1 nM. For the same molecule, in test [2], the “specific lysis of MEC1-hS6 by healthy donor T cells, EC50” value turned out to be 0.003 nM and the “specific lysis of primary CLL cells by autologous T cells, day 11, median” value stood at 2.4%. In the test with Siglec-6 VC28-235-His6, this molecule displayed a Kd of 0.1 nM, a koff of 0.00031 s⁻¹ and a kon of 3.05e+06 M⁻¹ s⁻¹. The “EC50 (read off the curve)” value with CD3 on human T cells [3] was approximately 0.05 nM. In addition, the “fold more potent binding than the aDART-Fc” value with CD3 on human T cells [4] is approximately 2 fold. In addition, the “EC50 (read off the curve), NFAT reporter activation with MEC1-002 cells” value in test [5] is approximately 0.1 nM.
